This is an account of results in PMC6226434.

Assay [1] deals with human ETB receptor, wild type, codon-optimized construct with an internal FLAG epitope tag (human) (UniProt P24530).
Assay [2] concerns the target thermostabilized human ETB receptor (ETB-Y5), construct with an internal FLAG epitope tag (human) (UniProt P24530).
The target in assay [3] is ETB-SmBiT construct (human ETB receptor with SmBiT at the C-terminus) (human) (UniProt P24530).
In assay [4] the target is ETB-Y5 with SmBiT at the C-terminus (thermostabilized human ETB receptor) (human) (UniProt P24530).
The target of assay [5] is human ETB receptor L252H I254T double mutant (human) (UniProt P24530).
Assay [6] deals with human ETB receptor, wild type, codon-optimized construct with an internal FLAG epitope tag (human) (UniProt P24530). This is another data set of the same source.
In assay [7] the target is T1, full-length human ETA receptor construct with an internal FLAG epitope tag (human) (UniProt P25101).
T1 sequence: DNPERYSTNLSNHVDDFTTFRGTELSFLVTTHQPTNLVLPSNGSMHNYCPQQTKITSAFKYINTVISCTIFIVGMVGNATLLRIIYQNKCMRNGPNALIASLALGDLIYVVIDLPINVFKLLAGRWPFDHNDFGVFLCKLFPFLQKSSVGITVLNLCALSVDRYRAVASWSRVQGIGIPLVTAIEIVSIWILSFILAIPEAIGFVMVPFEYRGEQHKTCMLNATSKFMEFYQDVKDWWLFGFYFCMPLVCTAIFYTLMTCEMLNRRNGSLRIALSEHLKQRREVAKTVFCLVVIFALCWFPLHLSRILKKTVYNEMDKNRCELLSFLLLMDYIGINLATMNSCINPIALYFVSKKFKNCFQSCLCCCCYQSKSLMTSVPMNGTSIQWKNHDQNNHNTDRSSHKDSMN

Assay [8] deals with T2, ETA-SmBiT construct (human ETA receptor with SmBiT at the C-terminus) (human) (UniProt P25101).
T2 sequence: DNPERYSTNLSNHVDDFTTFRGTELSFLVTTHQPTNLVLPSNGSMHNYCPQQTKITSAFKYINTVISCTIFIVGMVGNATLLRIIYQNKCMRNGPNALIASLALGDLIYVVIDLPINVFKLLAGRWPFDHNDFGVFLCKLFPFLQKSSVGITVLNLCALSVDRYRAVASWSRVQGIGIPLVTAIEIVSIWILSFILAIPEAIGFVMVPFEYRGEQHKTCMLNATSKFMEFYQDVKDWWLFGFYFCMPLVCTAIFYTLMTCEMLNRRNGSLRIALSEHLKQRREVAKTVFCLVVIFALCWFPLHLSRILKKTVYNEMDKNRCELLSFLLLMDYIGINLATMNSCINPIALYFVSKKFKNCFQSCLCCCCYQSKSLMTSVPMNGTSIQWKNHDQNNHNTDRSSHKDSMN

With “IRL1620 (N-Suc-[E9, A11, 15] ET-1(8-21)) (peptide)”, the AP-TGFα release (TGFα shedding assay), EC50 in assay [1] worked out at 0.11 nM; in assay [2], 0.92 nM; in assay [5], 0.32 nM. Moreover, the values for the AP-TGFα release (TGFα shedding assay), Emax relative to ET-1 in assay [1] and in assay [2] were 87.6% and 83.6%, respectively. Further, the β-arrestin recruitment (NanoBiT, receptor-SmBiT with m12), EC50 in assay [3] was 3.1 nM; in assay [4] it was 15.1 nM. Further, the β-arrestin recruitment (NanoBiT, receptor-SmBiT with m12), Emax relative to ET-1 in assay [3] turned out to be 87.3%; in assay [4] it was 85.4%. Further, the AP-TGFα release (TGFα shedding assay), EC50; experiment with the double mutant in assay [6] turned out to be 0.14 nM.

B1: endothelin-3 (peptide)
peptide: CTCFTYKDKECVYYCHLDIIW
Take B1: the AP-TGFα release (TGFα shedding assay), EC50 is 0.13 nM in assay [1], 0.077 nM in assay [2] and 0.65 nM in assay [7]. Further, the values for the AP-TGFα release (TGFα shedding assay), Emax relative to ET-1 in assay [1], in assay [2] and in assay [7] were 100%, 101% and 101%, respectively. Moreover, the β-arrestin recruitment (NanoBiT, receptor-SmBiT with m12), EC50 in assay [3] is 3.3 nM; in assay [8] it was 10.8 nM; in assay [4], 3.5 nM. Moreover, the β-arrestin recruitment (NanoBiT, receptor-SmBiT with m12), Emax relative to ET-1 in assay [3] was 105%; in assay [8], 81.1%; in assay [4] it was 105%.
